# Assays:
# [1] = target: nuclear pore complex of nup120Δ cells (S. cerevisiae (endogenous)) (UniProt P52891); test: co-fractionation with isolated NPCs (QFPD, quantitative fluorescent protein detection); glucose-grown (repressing) cells; nuclei isolated on sucrose/PVP-40 gradients, lysed with DNase I, NPC fraction floated on sucrose/Nycodenz gradient; GFP fluorescence of the fractions read on a Typhoon imager; values relative to wild type; also done in gcr1Δ and gcr1Δ nup84Δ strains
# [2] = target: nuclear pore complex of nup133Δ cells (S. cerevisiae (endogenous)) (UniProt P52891); test: as above
# [3] = target: nuclear pore complex of nup84Δ cells (S. cerevisiae (endogenous)) (UniProt P35729); test: as above
# [4] = target: T1, Mig1-GFP fusion protein (S. cerevisiae, UniProt P27705 1-504); test: co-IP; anti-GFP antibody added to crude lysate of glucose-grown cells, protein A sepharose; eluate blotted and probed with anti-lexA antibody (anti-GFP as control); settings: partners not purified
# T1 construct: Mig1, glucose-regulated repressor of S. cerevisiae; GFP tag integrated at the MIG1 locus; Called a fully functional fusion; also called GFP-tagged Mig1; source: S. cerevisiae, Mig1-GFP strain from the Yeast GFP Clone collection (Invitrogen), integrated GFP tag; in crude lysate or cell fractions
# T1 sequence (P27705 whole entry, the tested form may be a part): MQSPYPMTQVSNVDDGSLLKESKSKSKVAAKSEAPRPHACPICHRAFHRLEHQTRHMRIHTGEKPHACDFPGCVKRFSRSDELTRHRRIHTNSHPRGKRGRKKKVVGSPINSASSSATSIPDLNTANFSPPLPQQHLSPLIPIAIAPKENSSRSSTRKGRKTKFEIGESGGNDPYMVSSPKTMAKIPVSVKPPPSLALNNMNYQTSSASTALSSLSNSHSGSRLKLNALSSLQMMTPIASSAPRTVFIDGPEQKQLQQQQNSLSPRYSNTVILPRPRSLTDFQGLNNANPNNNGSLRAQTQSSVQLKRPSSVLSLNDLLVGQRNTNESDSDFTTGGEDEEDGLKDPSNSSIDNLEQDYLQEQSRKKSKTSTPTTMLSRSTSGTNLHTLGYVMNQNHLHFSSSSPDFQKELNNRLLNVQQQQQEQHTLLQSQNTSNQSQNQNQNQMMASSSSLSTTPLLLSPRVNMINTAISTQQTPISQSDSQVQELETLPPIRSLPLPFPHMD
# Sequence of Mig1-GFP fusion protein (from UniProt P27705 1-504) (natural protein) (P27705 whole entry, the tested form may be a part): as above
# Sequence of nuclear pore complex of nup120Δ cells (S. cerevisiae (endogenous)) (P52891 whole entry, looked up, stated change not applied, one chain of several): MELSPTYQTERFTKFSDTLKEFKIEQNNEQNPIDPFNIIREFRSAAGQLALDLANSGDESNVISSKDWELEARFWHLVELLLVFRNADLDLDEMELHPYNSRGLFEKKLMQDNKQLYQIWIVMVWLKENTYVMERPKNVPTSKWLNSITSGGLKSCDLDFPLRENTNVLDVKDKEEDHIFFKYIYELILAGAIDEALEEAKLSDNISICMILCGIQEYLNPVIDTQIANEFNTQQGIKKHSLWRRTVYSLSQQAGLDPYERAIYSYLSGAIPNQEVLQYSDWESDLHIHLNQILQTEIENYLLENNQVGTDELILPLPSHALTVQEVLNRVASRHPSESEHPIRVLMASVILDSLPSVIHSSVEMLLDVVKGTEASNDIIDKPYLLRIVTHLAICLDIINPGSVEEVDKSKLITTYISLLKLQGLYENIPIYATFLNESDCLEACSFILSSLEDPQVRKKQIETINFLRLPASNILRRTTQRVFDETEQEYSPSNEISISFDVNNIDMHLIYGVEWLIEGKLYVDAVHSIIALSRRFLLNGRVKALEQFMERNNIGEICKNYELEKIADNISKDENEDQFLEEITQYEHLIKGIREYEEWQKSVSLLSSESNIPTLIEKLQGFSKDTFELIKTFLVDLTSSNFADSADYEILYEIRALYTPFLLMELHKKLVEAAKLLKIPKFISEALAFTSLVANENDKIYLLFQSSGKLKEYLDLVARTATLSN
# Sequence of nuclear pore complex of nup133Δ cells (S. cerevisiae (endogenous)) (P52891 whole entry, looked up, stated change not applied, one chain of several): as above
# Sequence of nuclear pore complex of nup84Δ cells (S. cerevisiae (endogenous)) (P35729 whole entry, looked up, stated change not applied, the tested form may be a part, one chain of several): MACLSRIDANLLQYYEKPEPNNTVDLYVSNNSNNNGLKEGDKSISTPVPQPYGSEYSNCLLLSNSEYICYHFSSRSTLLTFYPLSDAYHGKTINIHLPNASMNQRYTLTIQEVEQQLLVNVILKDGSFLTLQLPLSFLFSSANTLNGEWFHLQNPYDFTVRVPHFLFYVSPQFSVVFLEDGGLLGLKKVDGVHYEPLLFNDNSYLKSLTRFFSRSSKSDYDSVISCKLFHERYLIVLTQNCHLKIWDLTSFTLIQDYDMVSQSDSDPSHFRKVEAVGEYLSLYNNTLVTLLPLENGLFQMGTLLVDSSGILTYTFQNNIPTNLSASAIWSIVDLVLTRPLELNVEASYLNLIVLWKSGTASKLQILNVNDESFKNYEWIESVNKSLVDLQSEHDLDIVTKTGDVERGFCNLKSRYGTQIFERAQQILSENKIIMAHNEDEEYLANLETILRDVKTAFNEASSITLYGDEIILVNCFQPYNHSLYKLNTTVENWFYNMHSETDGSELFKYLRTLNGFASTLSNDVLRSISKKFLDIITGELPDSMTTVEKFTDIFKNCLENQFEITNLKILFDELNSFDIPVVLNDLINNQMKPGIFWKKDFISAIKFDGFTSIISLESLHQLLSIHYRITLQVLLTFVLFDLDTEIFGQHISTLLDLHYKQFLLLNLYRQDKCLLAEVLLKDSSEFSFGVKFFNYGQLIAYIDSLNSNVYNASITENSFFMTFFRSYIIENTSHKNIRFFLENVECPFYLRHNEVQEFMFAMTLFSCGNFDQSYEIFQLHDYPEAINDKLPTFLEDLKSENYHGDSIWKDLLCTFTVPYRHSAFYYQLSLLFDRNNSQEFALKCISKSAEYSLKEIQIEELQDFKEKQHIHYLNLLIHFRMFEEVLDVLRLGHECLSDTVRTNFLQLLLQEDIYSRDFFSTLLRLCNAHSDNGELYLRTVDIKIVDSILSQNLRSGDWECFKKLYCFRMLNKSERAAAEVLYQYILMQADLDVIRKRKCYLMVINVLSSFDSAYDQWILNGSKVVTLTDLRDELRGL
Molecule,perinuclear Mig1 relative to wild type (relative to wild type (1.00)) [1],perinuclear Mig1 relative to wild type (relative to wild type (1.00)) [2],perinuclear Mig1 relative to wild type (relative to wild type (1.00)) [3],fold reduction in co-immunoprecipitation relative to Nup84-lexA [4] [fold]
Mig1-GFP fusion protein (from UniProt P27705 1-504) (natural protein),0.43,0.03,1.3,–
"Nup53-lexA (natural protein, S. cerevisiae, UniProt Q03790 1-475, looked up, Nup53, nucleoporin, S. cerevisiae; source: S. cerevisiae Mig1-GFP strain, in crude lysate) MADLQKQENSSRFTNVSVIAPESQGQHEQQKQQEQLEQQKQPTGLLKGLNGFPSAPQPLFMEDPPSTVSGELNDNPAWFNNPRKRAIPNSIIKRSNGQSLSPVRSDSADVPAFSNSNGFNNVTFGSKKDPRILKNVSPNDNNSANNNAHSSDLGTVVFDSNEAPPKTSLADWQKEDGIFSSKTDNIEDPNLSSNITFDGKPTATPSPFRPLEKTSRILNFFDKNTKTTPNTASSEASAGSKEGASTNWDDHAIIIFGYPETIANSIILHFANFGEILEDFRVIKDFKKLNSKNMSKSPSLTAQKYPIYTGDGWVKLTYKSELSKSRALQENGIIMNGTLIGCVSYSPAALKQLASLKKSEEIINNKTSSQTSLSSKDLSNYRKTEGIFEKAKAKAVTSKVRNAEFKVSKNSTSFKNPRRLEIKDGRSLFLRNRGKIHSGVLSSIESDLKKREQASKSKKSWLNRLNNWLFGWNDL",–,–,–,> 2

# Reference: paper PMC3215702, “The Nuclear Pore Complex Mediates Binding of the Mig1 Repressor to Target Promoters” (PLoS ONE, 2011)
